Laboratory results from article PMC10058639.

Legend:
[1] = biological target: recombinant truncated oyster intraflagellar transport protein 74-like protein (roIFT) (Crassostrea gigas (Pacific oyster)); assay: ELISA
[2] = biological target: recombinant truncated oyster tumor necrosis factor (roTNF) (Crassostrea gigas (Pacific oyster)); assay: ELISA

For “P protein of HuNoV GI.1, recombinant, purified (domain or fragment)”, the P/N (OD450 of sample over negative control) [1] was 6.97 and the P/N (OD450 of sample over negative control) [2] was 5.88.

Work on “P protein of HuNoV GII.4, recombinant, purified (domain or fragment)” yielded a P/N (OD450 of sample over negative control) [1] of 3.95 and a P/N (OD450 of sample over negative control) [2] of 5.33.
